Data set [1] deals with porcine αβ-tubulin, as dynamic microtubules polymerizing from soluble αβ-tubulin (porcine) (UniProt P02550). Kind of data set: TIRF microscopy of dynamic microtubules.
Data set [2] concerns the molecule itself. Kind of data set: single-molecule fluorescence intensity distribution.
Data set [3] addresses porcine αβ-tubulin, as dynamic microtubules polymerizing from soluble αβ-tubulin (porcine) (UniProt P02550). Kind of data set: single-molecule TIRF microscopy of dynamic microtubules.

B1: Alp14 (residues 1–690) C-terminally fused to mNeonGreen (domain or fragment)
chain: MSQDQEEDYSKLPLESRIVHKVWKVRLSAYEECSKSFSLSADGSDNCFELWNNQSELWKSVLTDSNVAAQEAGTAAFVAYCRFSDPSHLLKAREISVLSISEKCLTSPRAGTRENALEALMLLVEADSAAPVIESIIPSLSARSPKVIASNVAAIASLVEQFGAKVIPSKMIIPHISNLFGHADKNVRKEASRLTVNIYRWTGDPLKDLLFKDLRPVQTKELESLFAELPTEPPKQTRFLKSQQPTSEPNVETQVEEQPALENEESEPEPSDDQFDLVEEVDVLPNVDPNLETLMASSKWKDRKEALDKLLPVLSQPKIKDNDFFNLVAILTKSVSKDANIMVVINAAHCIQAMAKGLRSNFSKYASTSINALLERSKEKKANVIESLSSAMDAVLATSSLDDLAELIASFAGNKNPQIKSSCFSLFSRSFSNMTSLPSKFTVDTCAKACVPGVSDTFEPVRSAAAEALGVLMKLVGERAINQYLSPLDDIRKSKIRSFYETATVKAKAPTKKSKVKPSKQEESKVVVPSNAKAVKKSVVPSSPVVPSPRKATNKSLSMDVSKGNAFENGPLLPRPTTRPVSRGLSRGTSSSLQQKVKASTPLNSGALNETVQNLKNMELDDPAPQPAKHSRVDRYEHPKVLEDNDSTISSLESLKRENEELREQLKVEHEENISMQKQLSELKGELNTL
For the molecule B1, in data set [1], the average MT plus-end tracking ratio worked out at 0.89 and the average tracking time at MT plus ends was 125 s.

B2: C-terminal-SNAPf-tagged Alp14 (residues 1–690), labelled with SNAP-surface Atto-488 (domain or fragment, S. pombe, UniProt O94534 1-690, looked up)
chain: B1 chain
modifications: SNAP-surface Atto-488 fluorophore covalently attached to the SNAP tag
The term stoichiometry N denotes the number of molecules, sites or subunits per partner or assembly. Turning to B2, the “stoichiometry N” value in data set [2] was 2. The mean dwell time at polymerizing MT plus ends in data set [3] stood at 129 s.

Source of the values: paper PMC6724690 (Molecular Biology of the Cell, 2019).
